“And” between values parts separate entries of the source, which are not always exact repeats. Equal entries are not always repeated. Ends that are not written are not given here.
Columns and labels:
[1] = Weight of mice during 10-day peptide treatment (Example 1); format: in vivo; details: individual mice
Method: (§1) In a first experiment designed to investigate the effect of glicentin on small bowel growth, two groups of six mice (8 week, CD1 females from Charles River Laboratories) were treated as follows. Each mouse received 41.5 μg injections every 12 hours for 10 days. The injections were delivered subcutaneously in a final volume of 16% gelatin, with 0.5 cc injected subcutaneously every 12 hours. […] Control mice received 0.5 cc of 16% gelatin solution, but no peptide, every 12 hours. Mice were fed standard rat chow with free access to food and water, until 12 hours prior to sacrifice, at which time food was withheld, and water only was given. The weight of the small bowel was ascertained by excising the entire small bowel, and removing the stomach (proximal end) and appendix/cecum/large bowel (distal end). The remaining small bowel was cleaned with saline to remove feces, and weighed.
(§2) Mice were injected with 0.5 ml of the 16% gelatin solution, without or with peptide (62.5 μg/dose). Four groups of four mice (8 week, CD1 females from Charles River Laboratories) were injected twice daily for 10 days.

small bowel = assay: Small bowel weight in mice after 10 days of s.c. peptide in 16% gelatin (Example 1); format: in vivo; details: for Small bowel weight Day 10: individual mice
Method: as §1, with “weighed. Results were as follows:” for “weighed.”
GLP-2 formulations for injection were prepared as follows: Gelatin was dissolved in warm water to a weight ratio of 16%, and the 50 mL solution was autoclaved and cooled to room temperature. A peptide solution was then separately prepared by mixing 5 mg of GLP-2 with water at a volume slightly less than 10 mL, and then adding 1N acetic acid in a volume (10-20 μL) sufficient to dissolve the peptide completely. The pH was then readjusted to about 7.0 by addition of an equal volume of 1N NaOH (10-20 μL), and the solution volume was then adjusted to 10 mL by addition of distilled water. To prepare the formulation for injection, the 10 mL peptide solution and the 50 mL solution of 16% gelatin were combined with mixing, and aliquots for injection were drawn into a 0.5 mL insulin syringe.
as §2

Solubility in water = format: physicochemical; details: preparation of injection solution
[2] = Complete autopsy after long term administration; format: in vivo, mice; details: 5 μg once a day s.c. in 10% gelatin for 4, 8 or 12 weeks
Method: Effect of Long Term Administration: Rat GLP-2 in a 10% gelatin formulation was administered s.c. in a single dose of 5 μg once a day continuously for 4 weeks (panel A), for 8 weeks (panel B) or for 12 weeks (panel C). FIG. 5 illustrates GLP-2 mediated effects on small bowel weight (BW) and in the crypt plus villus heights (PJ, DJ and DI) in treated groups (T), relative to a control (C) receiving 10% gelatin alone. […] A similar response was noted also for the distal jejunum.

[3] = 62.5 μg/dose twice daily for 10 days in 16% gelatin
[4] = group of four mice, 62.5 μg/dose twice daily for 10 days in 16% gelatin
[5] = 41.5 μg s.c. every 12 hours for 10 days in 16% gelatin

Molecule | Weight of Mice Day 10 [1, 3] | Small bowel weight % body wt (small bowel; [4]) | Small bowel weight Average (small bowel; [4]) | Small bowel weight Day 10 (small bowel; [3]) | solubility in water (Solubility in water) | histological abnormalities at autopsy [2] | Weight of Mice Day 10 [1, 5] | intestinotrophic effect (small bowel; 41.5 μg s.c. every 12 hours for 10 days) | Small bowel weight Day 10 (small bowel; [5])
GLP-1: human GLP-1 (7-36 amide), custom synthesized by tBoc-based solid phase approach [reference compound] | 24.8 gm and 22.8 gm and 26.5 gm | 5.26 ± .2 % body wt | 1.33 ± .04 gm | 1.4 gm and 1.3 gm and 1.2 gm | relative greater solubility in water |  |  |  | 
HADGSFSDEMNTILDNLATRDFINWLIQTKITD [rat GLP-2] | 23.7 gm and 25.7 gm and 27.1 gm and 25.4 gm |  |  |  |  | no histological abnormalities found |  |  | 
Glicentin: glicentin (rat), proglucagon gene-derived peptide (peptide, UniProt P06883 21-89, looked up, Glicentin, glicentin (rat), proglucagon gene-derived peptide) Glicentin: HAPQDTEENARSFPASQTEPLEDPDQINEDKRHSQGTFTSDYSKYLDSRRAQDFVQWLMNTKRNRNNIA |  |  |  |  | dissolved easily |  | 26.6 gm and 26.2 gm and 24.5 gm and 24.7 gm and 25.8 gm | modest | 1.6 gm and 1.7 gm and 1.3 gm and 1.9 gm

Reference: patent US5834428A, “Glucagon-like peptide-2 and its therapeutic use” (1149336 Ontario Inc., priority 1996, dated 1998)
